We go through 2 molecules from article PMC8875425 (ACS Central Science, 2022).

Square brackets hold non-standard residues; d marks the D form. pS = N[C@@H](COP(=O)(O)O)C(=O)O

Test [1] concerns the target KIX domain of CREB-binding protein (CBP) (UniProt P45481 588-672). The test can be described thus: fluorescence polarisation. Background: In fluorescence polarisation assays a small probe gives low polarisation when free and higher when bound to something large.
Test [2] has as its target MBP-KIX-apoferritin construct 3 (24-mer double-shell complex) (not stated | mouse). Description: fluorescence polarisation.

Chain of KIX domain of CREB-binding protein (CBP) (P45481 588-672): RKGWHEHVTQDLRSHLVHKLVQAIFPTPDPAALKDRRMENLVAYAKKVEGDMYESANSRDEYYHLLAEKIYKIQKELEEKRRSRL

For the molecule Ac-LSRRP[pS]YRKILNDLSSDAP-NH2 [peptide 7], the IC50 (usually the concentration needed to halve the response being measured) in test [1] came out at 50 µM; in test [2], 311 µM.

Ac-LKRRP[pS]YRKILNDLSSDAP-NH2 [peptide 7′]: the IC50 was determined as 24.2 µM in test [1] and 170 µM in test [2].
